1 molecule from patent US20210206875A1, “ERBB-2 TARGETING AGENT AND A BISPECIFIC ANTIBODY WITH ANTIGEN-BINDING SITES THAT BIND AN EPITOPE ON AN EXTRACELLULAR PART OF ERB-2 AND ERBB-3, FOR TREATMENT OF AN INDIVIDUAL WITH AN ERBB-2, ERBB-2/ERBB-3 POSITIVE TUMOUR” (Merus N.V., priority 2017, published 2021) can be followed below.

In one assay the test system is MCF-7 cells. Description: HRG dependent MCF-7 proliferation assay. The assay is classed as cell-based, human. The settings on record: HRG dependent MCF-7 assay. How it is done:
(§1) SK-BR-3 cells were cultured in DMEM-F/12 supplemented with L-glutamine and 10% heat inactivated FBS. BxPC-3-luc2 cells were cultured in RPMI1640 supplemented with 10% heat inactivated FBS. MCF-7 cells were cultured in RPMI1640 supplemented with 100 μM, NEAA1 mM sodium pyruvate, 4 μg/ml insulin and 10% heat inactivated FBS.
For the proliferation assay of MCF-7 and BxPC-3-luc2 cells, subconfluent cell cultures were washed with PBS, trypsinized and trypsin was inactivated by adding culture medium. Cells were washed twice in large volumes of assay medium (RPMI 1640 medium containing 0.05% BSA and 10 μg/ml Holo Transferrin). MCF-7 cells were diluted to 5×10^4 cells/ml in culture medium. Antibodies were diluted to concentrations of 10 and 1 μg/ml and added in a volume of 100 μl in 96-well black bottom plates (ABgene AB-0932). Cells were added at a density of 5000 cells/well in the presence of 1 ng/ml final concentration human Recombinant Human NRG1-beta 1/HRG1-beta 1 EGF Domain; (396-HB-050 RND). Human NRG1-beta 1/HRG1-beta 1 EGF Domain will hereinafter be referred to as HRG. […] Fluorescence was measured at 550 nm excitation with 590 nm emission wave length.
The IC50 for the bispecific antibodies, monoclonals and comparator antibodies was calculated using non-linear regression analysis with Prism software.

The test system of the next assay is BxPC-3-luc2 cells. The assay is described as follows: HRG dependent BxPC-3-luc2 proliferation assay. The assay is classed as cell-based, human. How it is done: as §1
Antibodies were diluted to concentrations of 10 and 1 μg/ml and added in a volume of 100 μl in 96-well black bottom plates (ABgene AB-0932). […] Fluorescence was measured at 550 nm excitation with 590 nm emission wave length.

B1: #Ab6: anti-HER3 antibody of Merrimack Pharmaceuticals, recloned in IgG1 backbone (antibody, chains of the INN, looked up, V domains shown)
VH: EVQLLESGGGLVQPGGSLRLSCAASGFTFSHYVMAWVRQAPGKGLEWVSSISSSGGWTLYADSVKGRFTISRDNSKNTLYLQMNSLRAEDTAVYYCTRGLKMATIFDYWGQGTLVTVSS
VL: QSALTQPASVSGSPGQSITISCTGTSSDVGSYNVVSWYQQHPGKAPKLIIYEVSQRPSGVSNRFSGSKSGNTASLTISGLQTEDEADYYCCSYAGSSIFVIFGGGTKVTVL
modifications: IgG1
notes: anti-HER3 antibody of Merrimack Pharmaceuticals, recloned in IgG1 backbone
The molecule B1 had an IC50 in the assay with MCF-7 cells of 504 pM. Also, the “BxPC3 % Inhibition” value in the assay on BxPC-3-luc2 cells is recorded as −7%.
